Consider two substances from article PMC10140475.

Experiment in all cases: SPR
In general terms: In SPR one partner is held on a chip, and binding of the other changes the refractive index at the surface.

In one assay the target is VRC01 (germline). As to conditions: antibody concentrations 0.98 nM-1,000 nM; parent: N/A.
In another assay the target is CH31 (mature). The note with it: antibody concentrations 0.98 nM-1,000 nM; parent: <1.
For a further assay, the target named is CH31 (germline). As to conditions: antibody concentrations 0.98 nM-1,000 nM; parent: N/A.
The next assay concerns the target VRC01 (mature). The note with it: antibody concentrations 0.98 nM-1,000 nM; parent: <10.
The target in a further assay is eOD-GT8.

pKd: −log10 of the molar value. Bounds are passed on as bounds.

Usually pKd stands for the negative decadic logarithm of the Kd, by convention in mol/L. For the substance “BG505 SOSIP trimer (fully glycosylated) (from UniProt Q2N0S6)”, the pKd with VRC01 (germline) was 6.17; with CH31 (mature), 9.85; with CH31 (germline), 5.40; with VRC01 (mature), > 10.00.
Substance gl-CH31 gave a pKd in the assay with eOD-GT8 of 4.92.
